The values that follow come from patent US20240066100A1 (published 2024).

Assay [1] addresses T1, human IL-18Rα ectodomain (amino acids 19-329), biotinylated (human, UniProt Q13478 19-329, biotin on the AviTag (BirA ligase)).
T1 construct: range 19-329; Secreted from insect cells with gp67 signal peptide (cleaved); also called hIL-18Rα; IL-18R1
T1 sequence: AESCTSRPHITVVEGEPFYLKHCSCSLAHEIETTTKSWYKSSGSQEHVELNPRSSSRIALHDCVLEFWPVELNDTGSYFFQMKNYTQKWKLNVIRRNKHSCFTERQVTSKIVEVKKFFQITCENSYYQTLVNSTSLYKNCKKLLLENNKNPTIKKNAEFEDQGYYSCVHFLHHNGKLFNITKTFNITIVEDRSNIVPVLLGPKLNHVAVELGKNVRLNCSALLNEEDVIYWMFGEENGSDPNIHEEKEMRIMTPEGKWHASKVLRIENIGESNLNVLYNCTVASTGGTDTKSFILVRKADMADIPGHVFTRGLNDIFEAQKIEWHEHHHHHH
Briefly: on-yeast binding isotherm, flow cytometry; exponent missing in the cell, derived from c3/c4. A general note: A flow cytometer gives signals particle by particle.

Assay [2] deals with T1, human IL-18Rα ectodomain (amino acids …). Briefly: on-yeast binding isotherm, flow cytometry; exponent missing in the cell, derived from 20 µM/c4.
Assay [3] deals with T2, mouse IL-18BP (amino acids 31-194), biotinylated (mouse, UniProt Q9Z0M9 29-193, biotin on the AviTag (BirA ligase)).
T2 construct: Secreted from Expi293 cells with H7 signal peptide (cleaved); The printed residue range is the same as for the human protein and may not fit the mouse entry; also called mIL-18BP
T2 sequence: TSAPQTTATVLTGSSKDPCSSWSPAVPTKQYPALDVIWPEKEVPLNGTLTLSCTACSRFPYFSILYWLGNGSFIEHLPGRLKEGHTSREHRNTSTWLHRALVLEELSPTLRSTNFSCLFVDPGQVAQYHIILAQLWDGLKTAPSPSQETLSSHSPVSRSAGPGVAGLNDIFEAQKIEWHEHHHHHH
Briefly: yeast binding isotherms and SPR.

As usually defined, the Kd is a measure of binding affinity in units of concentration. A low value points to a tighter complex.

B1: human decoy-resistant IL-18 variant SEQ ID NO: 34 (ligand)
chain: YFGKLESKLSVIRNLNDQVLFIDQGNRPLFEDMTDSDCRDNAPRTIFIISTYKDSQPRGKAVTISVKCEKISTLSCENKIISFKEMNPPDNIKDTKSDIIFFQRDVPGHKHKMQFESSSYEGYFLACEKERDLFKLILKKEDELGDRSIMFTVQNED
notes: Engineered variant of mature human IL-18; tag and display linker not in chains; also called hCS1; hCS-1
B1: the affinity in assay [1], expressed as Kd, was 64.4 nM.

B2: human decoy-resistant IL-18 variant SEQ ID NO: 37 (ligand)
chain: RFGKLESKLSVIRNLNDQVLFIDQGNRPLFEDMTDSDCRDNAPRTIFIISTYRDSQPRGKAVTISVKCEKISTLSCENKIISFKEMNPPDNIKDTKSDIIFFQRNVPGHKYKMQFESSSYEGYFLACEKERDLFKLILKKEDELGDRSIMFTVQNED
notes: Engineered variant of mature human IL-18; tag and display linker not in chains; also called hCS4
In the case of B2, the affinity in assay [2], expressed as Kd, was 160 nM.

B3: human decoy-resistant IL-18 variant SEQ ID NO: 39 (ligand)
chain: YFGKLESRLSVIRNLNDQVLFIDQGNRPLFEDMTDSDCRDNAPRTIFIISKYKDKQPRAQAVTISVKCEKISTLSCENKIISFKEMNPPDNIKDTKSDIIFFQRDVPGHKHKMQFESSSYEGYFLACEKERDLFKLILKKEDELGDRSIMFTIQNED
notes: Engineered variant of mature human IL-18; display linker not in chains; also called hA8
Turning to B3, the affinity in assay [2], expressed as Kd, was 57.7 nM.

B4: human decoy-resistant IL-18 variant SEQ ID NO: 36 (ligand)
chain: RFGKLESKLSVIRNLNDQVLFIDQGNRPLFEDMTDSDCRDNAPRTIFIISTYKDSQPRGKAVTISVKCEKISTLSCENKIISFKEMNPPDNIKDTKSDIIFFQRDVPGHKHKMQFESSSYEGYFLACEKERDLFKLILKKEDELGDRSIMFTVQNED
notes: Engineered variant of mature human IL-18; tag and display linker not in chains; also called hCS3
B4 displayed a Kd in assay [1] of 113 nM.

B5: human decoy-resistant IL-18 variant SEQ ID NO: 52 (ligand)
chain: RFGKLESRLSVIRNLNDQVLFIDQGNRPLFEDMTDSDCRDNAPRTIFIISTYKDSQPRGKAVTISVKCEKISTLSCENKIISFKEMNPPDNIKDTKSDIIFFQRDVPGHKHKMQFESSSYEGYFLACEKERDLFKLILKKEDELGDRSIMFTVQNED
notes: Engineered variant of mature human IL-18; display linker not in chains; also called hH3
In assay [2], B5 returned a Kd of 83.8 nM.

B6: human decoy-resistant IL-18 variant SEQ ID NO: 57 (ligand)
chain: RFGKHESKLSVIRNLNDQVLFIDQGNRPLFEDMTDSDCRDNAPRTIFIISTYRDSQPRGKAVTISVKCEKISTLSCENKIISFKEMNPPDNIKDTKSDIIFFERNVPGHKYKMQFESSSYEGYFLACEKERDLFKLILKKEDELGDRSIMFTVQNED
notes: Engineered variant of mature human IL-18; display linker not in chains; also called hB9
In turn, B6 came in with a Kd in assay [2] of 127 nM.

B7: murine decoy-resistant IL-18 variant SEQ ID NO: 64 (ligand)
chain: NFGRLHCTTAVIRNINDQVLFVDKRQPVFEDMTDIDQSASEPQTRLIIYVYTDGRRRGKAVTLSVKDSKMSTLSCKNKIISFEEMDPPENIDDIQSDLIFFQKKVPGHDKMEFESSLYEGHFLACQKEDDAFKLILKKKDENGDKSVMFTLTNLHQS
notes: Engineered variant of mature mouse IL-18; tag and display linker not in chains; also called mE8; E8
Take B7: the Kd in assay [3] is greater than 1000 nM.
